Earlier results on one substance are cited in publication PMC7602216.

The target of the series is UBA5 UIS (Homo sapiens) (UniProt Q9GZZ9). Briefly: ITC. (ITC needs no label: the signal is the heat of the interaction.)

With UFM1 (from UniProt P61960), the dissociation constant Kd is 8 µM.

Usually Kd stands for the equilibrium constant for the complex coming apart.
